Where two headings read alike, the source gives them in different places.
Legend:
OC43 virus = experiment: RT-qPCR of cell culture medium for OC43 virus; settings: RNase 10 μg/mL, dendrimer 10 μM where present
Experimental: To conduct the RT-qPCR testing, cell culture medium was collected at 3 and 5 days after virus infection with or without mild RNase plus dendrimer treatment for RT-qPCR test. RNA from the infection virus were used for reverse transcriptase (RT) to direct complimentary DNA (cDNA) synthesis. The resulting cDNA was used as templates for the RT-qPCR reaction with a SYBR RT-PCR Kit. Reaction conditions were: 30 minutes RT at 50° C., 15 minutes at 94° C. for inactivation of reverse transcriptase (RT), followed by 40 cycles of 95° C. for 15 seconds, 60° C. for 45 seconds. Finally, conditions of 65° C. for 5 seconds and 95° C. for 5 seconds were used.
Melting curve analysis was performed under the condition of 95° C. for 60 seconds, 40° C. for 60 seconds, 65° C. for 1 second, followed by a slow increase from 65° C. to 95° C. at a rate of 0.07° C. per second.
Note that the limit for this PCR reaction is between 10-100 particles, which is sufficient to detect if a well is infected or has virus present.

[1] = Aggregate net charge estimated from published data; format: physicochemical; settings: calculated estimates from published data
Description: To determine the resulting aggregate net charge of each mixture (mildly or highly) cationized RNase A may be fractionated according to net charge by cation-exchange chromatography. Based upon calculated estimates from published data, the aggregate net charge of the mildly cationized RNase obtained from the above methodology is approximately +11 to +13 and the aggregate net charge of the highly cationized RNase obtained from the above methodology is approximately +21 to +23.

HCoV-OC43 virus = format: cell-based; settings: OC43, HEK293T
HEK293T cells = experiment: Cytotoxicity of cationized RNase using HEK293T cells; format: cell-based, human
Experimental: In this example, initially, the cytotoxicity of cationized RNase using HEK293T cells is tested. Next, the highest dose with more than 80% surviving cells is selected for an anti-viral test of a co-treatment of RNase/DNase complexed with a highly cationic molecule dendrimer (the generation 2 poly PAMAM dendrimer described above) to enhance the efficacy of ribonucleases as anti-virus (HCoV-NL63/OC43) agents.
In this set of exemplar experiments, the same methodology, including the cellular compositions, viral samples, and RNase/DNase formulations from Example 1 are utilized in the various experimental combinations shown in FIG. 21.

[2] = cited from earlier work
HIV = settings: published research; cited from earlier work

B1: mildly cationized RNase: bovine pancreatic RNase A carboxyl groups amidated with ethylenediamine using 10 mg EDC; mixture of diversely modified proteins (protein, UniProt P61823 27-150, looked up)
Ribonuclease pancreatic: KETAAAKFERQHMDSSTSAASSSNYCNQMMKSRNLTKDRCKPVNTFVHESLADVQAVCSQKNVACKNGQTNCYQSYSTMSITDCRETGSSKYPNCAYKTTQANKHIIVACEGNPYVPVHFDASV
modifications: carboxyls amidated with ethylenediamine, mildly cationized
notes: bovine pancreatic RNase A carboxyl groups amidated with ethylenediamine using 10 mg EDC; mixture of diversely modified proteins
OC43 virus; 3 days
  virus detection in medium by RT-qPCR after 3 days: detected
OC43 virus; 5 days
  virus detection in medium by RT-qPCR after 5 days: detected
[1]
  aggregate net charge: +11 to +13
HCoV-OC43 virus; 7.5 μg/ml
  effective reduction compared to the control group (TCID50): 6.8 ×
HEK293T cells; FIG. 22
  concentration with survival of 80% of the control cells: 10000 ng/mL

B2: highly cationized RNase: bovine pancreatic RNase A carboxyl groups amidated with ethylenediamine using EDC 80+80+40 mg; mixture of diversely modified proteins (protein, UniProt P61823 27-150, looked up)
Ribonuclease pancreatic: KETAAAKFERQHMDSSTSAASSSNYCNQMMKSRNLTKDRCKPVNTFVHESLADVQAVCSQKNVACKNGQTNCYQSYSTMSITDCRETGSSKYPNCAYKTTQANKHIIVACEGNPYVPVHFDASV
modifications: carboxyls amidated with ethylenediamine, highly cationized
notes: bovine pancreatic RNase A carboxyl groups amidated with ethylenediamine using EDC 80+80+40 mg; mixture of diversely modified proteins
[1]
  aggregate net charge: +21 to +23
HCoV-OC43 virus; highly cationized formulation
  effective reduction compared to the control group (TCID50): negligible
HEK293T cells; interpolation of experimental results
  concentration with 80% survival of control cells, interpolated: 200 to 500 ng/mL

B3: ranpiRNase: ribonuclease enzyme found in the oocytes of the northern leopard frog (rana pipiens) (protein, UniProt P22069 1-104, looked up)
Protein P-30: QDWLTFQKKHITNTRDVDCDNIMSTNLFHCKDKNTFIYSRPEPVKAICKGIIASKNVLTTSEFYLSDCNVTSRPCKYKLKKSTNKFCVTCENQAPVHFVGVGSC
[2]; intravenously weekly, patients with malignant mesothelioma
  maximum tolerated dose (MTD): 960 mg/m2
[2]; of skin area, phase one clinical study
  maximum tolerated dose (MTD): 960 μg/m^2
HIV
  antiviral effect on HIV: shown antiviral activity against HIV
